T1: 재조합 인간 TIGIT 단백질 (acrobiosystems, China) (human, UniProt Q495A1 22-141)
T1 construct: Bought recombinant protein; also called hTIGIT
T1 sequence: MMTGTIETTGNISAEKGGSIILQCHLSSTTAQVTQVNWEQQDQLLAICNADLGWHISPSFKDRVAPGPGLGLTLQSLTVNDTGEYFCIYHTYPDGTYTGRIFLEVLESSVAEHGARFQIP


Target: T1, 재조합 인간 TIGIT 단백질 (acrobiosystems, China)
Experiment: SPR (Biacore T200), multi-cycle kinetics, antibody captured, TIGIT as analyte, 1:1 model

Row | Kd | koff | kon | Binder
1 | 1.89 nM | 0.000445 s⁻¹ | 235000 M⁻¹ s⁻¹ | 마우스 항-TIGIT 단클론 항체 2B7 (mouse backbone mIgG1) (antibody, V domains shown, also called 항-TIGIT 2B7 항체; 클론 2B7) VH: EVQLQQSGPELVKPGASVKISCKTSGSTFTEYTMHWVKQSHGKSLEWIGGLNPNNGGTSYNQRFKDRATLTVDKSSSTAYMELRSLTSEDSAVYYCTRGTYYDYSFAYWGQGTLVTVSA VL: DIVMTQSHKFMSTSVGDRVSITCKASHYVSTAVAWYQQKPGQSPKLLIYSPSYRYTGVPDRFTGSGSGTDFTFTISSVQAEDLAVYYCHQHYSTPWTFGGGTKLEIK
2 | 0.986 nM | 0.000216 s⁻¹ | 219000 M⁻¹ s⁻¹ | 마우스 항-TIGIT 단클론 항체 3F8 (mouse backbone mIgG1) (antibody, V domains shown, also called 항-TIGIT 3F8 항체; 클론 3F8) VH: EVQLQQSGPELVKPGASMKISCKASGYSFTDYIMNWVKQSHGKNLEWIGLSIPYNGGTSYNQKFEGKATLTVDKSSSTAYMELLSLTSEDSAVYYCARGIKGYFAMDYWGQGTSVTVSS VL: DVVVTQTPLSLPVSFGDQVSISCRSSQSLVNSFGKTYLSWFLHKPGQSPQLIMYGVSNRFSGVPDRFSGSGSGTDFTLKISTIKPEDLGMYYCLQGTHQPWTFGGGTKLEIK
